Here are results for six molecules from patent US20100130424A1 (Janssen / Centocor, published 2010).

No end group written: not given here. *: point of attachment. Succinimide(1-Et,3-yl) = CCN1C(=O)CC(*)C1=O

T1: human CRH receptor type 2 (human, UniProt Q13324 1-411)
T1 sequence (looked up): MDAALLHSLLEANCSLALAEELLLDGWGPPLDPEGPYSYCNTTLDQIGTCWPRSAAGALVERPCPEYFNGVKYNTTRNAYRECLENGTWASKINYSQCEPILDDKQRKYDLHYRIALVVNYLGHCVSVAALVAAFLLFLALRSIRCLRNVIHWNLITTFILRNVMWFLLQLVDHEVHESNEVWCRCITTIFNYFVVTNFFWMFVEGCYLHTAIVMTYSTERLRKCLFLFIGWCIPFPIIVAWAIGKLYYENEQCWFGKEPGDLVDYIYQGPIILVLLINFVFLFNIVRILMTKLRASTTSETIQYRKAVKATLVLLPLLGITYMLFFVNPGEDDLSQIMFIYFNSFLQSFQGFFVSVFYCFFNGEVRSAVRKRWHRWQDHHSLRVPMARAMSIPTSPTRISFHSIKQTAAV

B1: Cys-variant of stresscopin peptide with N-Ethylsuccinimide (NES) reactive group, SEQ ID NO: 48 (peptide)
peptide: TKFTLSLDVPTNIMNLLFNIAKAKNC(Succinimide(1-Et,3-yl))RAQAAANAHLMAQI-NH2
modifications: N-terminus assumed
SMILES: CC[C@H](C)[C@H](NC(=O)[C@H](CCC(N)=O)NC(=O)[C@H](C)NC(=O)[C@H](CCSC)NC(=O)[C@H](CC(C)C)NC(=O)[C@H](Cc1c[nH]cn1)NC(=O)[C@H](C)NC(=O)[C@H](CC(N)=O)NC(=O)[C@H](C)NC(=O)[C@H](C)NC(=O)[C@H](C)NC(=O)[C@H](CCC(N)=O)NC(=O)[C@H](C)NC(=O)[C@H](CCCNC(=N)N)NC(=O)[C@H](CSC1CC(=O)N(CC)C1=O)NC(=O)[C@H](CC(N)=O)NC(=O)[C@H](CCCCN)NC(=O)[C@H](C)NC(=O)[C@H](CCCCN)NC(=O)[C@H](C)NC(=O)[C@@H](NC(=O)[C@H](CC(N)=O)NC(=O)[C@H](Cc1ccccc1)NC(=O)[C@H](CC(C)C)NC(=O)[C@H](CC(C)C)NC(=O)[C@H](CC(N)=O)NC(=O)[C@H](CCSC)NC(=O)[C@@H](NC(=O)[C@H](CC(N)=O)NC(=O)[C@@H](NC(=O)[C@@H]1CCCN1C(=O)[C@@H](NC(=O)[C@H](CC(=O)O)NC(=O)[C@H](CC(C)C)NC(=O)[C@H](CO)NC(=O)[C@H](CC(C)C)NC(=O)[C@@H](NC(=O)[C@H](Cc1ccccc1)NC(=O)[C@H](CCCCN)NC(=O)[C@@H](N)[C@@H](C)O)[C@@H](C)O)C(C)C)[C@@H](C)O)[C@@H](C)CC)[C@@H](C)CC)C(N)=O
B2: Cys-variant of stresscopin peptide with N-Ethylsuccinimide (NES) reactive group, SEQ ID NO: 52 (peptide)
peptide: TKFTLSLDVPTNIMNLLFC(Succinimide(1-Et,3-yl))IAKAKNLRAQAAANAHLMAQI-NH2
modifications: N-terminus assumed
SMILES: CC[C@H](C)[C@H](NC(=O)[C@H](CCC(N)=O)NC(=O)[C@H](C)NC(=O)[C@H](CCSC)NC(=O)[C@H](CC(C)C)NC(=O)[C@H](Cc1c[nH]cn1)NC(=O)[C@H](C)NC(=O)[C@H](CC(N)=O)NC(=O)[C@H](C)NC(=O)[C@H](C)NC(=O)[C@H](C)NC(=O)[C@H](CCC(N)=O)NC(=O)[C@H](C)NC(=O)[C@H](CCCNC(=N)N)NC(=O)[C@H](CC(C)C)NC(=O)[C@H](CC(N)=O)NC(=O)[C@H](CCCCN)NC(=O)[C@H](C)NC(=O)[C@H](CCCCN)NC(=O)[C@H](C)NC(=O)[C@@H](NC(=O)[C@H](CSC1CC(=O)N(CC)C1=O)NC(=O)[C@H](Cc1ccccc1)NC(=O)[C@H](CC(C)C)NC(=O)[C@H](CC(C)C)NC(=O)[C@H](CC(N)=O)NC(=O)[C@H](CCSC)NC(=O)[C@@H](NC(=O)[C@H](CC(N)=O)NC(=O)[C@@H](NC(=O)[C@@H]1CCCN1C(=O)[C@@H](NC(=O)[C@H](CC(=O)O)NC(=O)[C@H](CC(C)C)NC(=O)[C@H](CO)NC(=O)[C@H](CC(C)C)NC(=O)[C@@H](NC(=O)[C@H](Cc1ccccc1)NC(=O)[C@H](CCCCN)NC(=O)[C@@H](N)[C@@H](C)O)[C@@H](C)O)C(C)C)[C@@H](C)O)[C@@H](C)CC)[C@@H](C)CC)C(N)=O
B3: Cys-variant of stresscopin peptide with N-Ethylsuccinimide (NES) reactive group, SEQ ID NO: 50 (peptide)
peptide: TKFTLSLDVPTNIMNLLFNIAKAC(Succinimide(1-Et,3-yl))NLRAQAAANAHLMAQI-NH2
modifications: N-terminus assumed
SMILES: CC[C@H](C)[C@H](NC(=O)[C@H](CCC(N)=O)NC(=O)[C@H](C)NC(=O)[C@H](CCSC)NC(=O)[C@H](CC(C)C)NC(=O)[C@H](Cc1c[nH]cn1)NC(=O)[C@H](C)NC(=O)[C@H](CC(N)=O)NC(=O)[C@H](C)NC(=O)[C@H](C)NC(=O)[C@H](C)NC(=O)[C@H](CCC(N)=O)NC(=O)[C@H](C)NC(=O)[C@H](CCCNC(=N)N)NC(=O)[C@H](CC(C)C)NC(=O)[C@H](CC(N)=O)NC(=O)[C@H](CSC1CC(=O)N(CC)C1=O)NC(=O)[C@H](C)NC(=O)[C@H](CCCCN)NC(=O)[C@H](C)NC(=O)[C@@H](NC(=O)[C@H](CC(N)=O)NC(=O)[C@H](Cc1ccccc1)NC(=O)[C@H](CC(C)C)NC(=O)[C@H](CC(C)C)NC(=O)[C@H](CC(N)=O)NC(=O)[C@H](CCSC)NC(=O)[C@@H](NC(=O)[C@H](CC(N)=O)NC(=O)[C@@H](NC(=O)[C@@H]1CCCN1C(=O)[C@@H](NC(=O)[C@H](CC(=O)O)NC(=O)[C@H](CC(C)C)NC(=O)[C@H](CO)NC(=O)[C@H](CC(C)C)NC(=O)[C@@H](NC(=O)[C@H](Cc1ccccc1)NC(=O)[C@H](CCCCN)NC(=O)[C@@H](N)[C@@H](C)O)[C@@H](C)O)C(C)C)[C@@H](C)O)[C@@H](C)CC)[C@@H](C)CC)C(N)=O
B4: Cys-variant of stresscopin peptide with N-Ethylsuccinimide (NES) reactive group, SEQ ID NO: 53 (peptide)
peptide: TKFTLSLDVPTNIMNLC(Succinimide(1-Et,3-yl))FNIAKAKNLRAQAAANAHLMAQI-NH2
modifications: N-terminus assumed
SMILES: CC[C@H](C)[C@H](NC(=O)[C@H](CCC(N)=O)NC(=O)[C@H](C)NC(=O)[C@H](CCSC)NC(=O)[C@H](CC(C)C)NC(=O)[C@H](Cc1c[nH]cn1)NC(=O)[C@H](C)NC(=O)[C@H](CC(N)=O)NC(=O)[C@H](C)NC(=O)[C@H](C)NC(=O)[C@H](C)NC(=O)[C@H](CCC(N)=O)NC(=O)[C@H](C)NC(=O)[C@H](CCCNC(=N)N)NC(=O)[C@H](CC(C)C)NC(=O)[C@H](CC(N)=O)NC(=O)[C@H](CCCCN)NC(=O)[C@H](C)NC(=O)[C@H](CCCCN)NC(=O)[C@H](C)NC(=O)[C@@H](NC(=O)[C@H](CC(N)=O)NC(=O)[C@H](Cc1ccccc1)NC(=O)[C@H](CSC1CC(=O)N(CC)C1=O)NC(=O)[C@H](CC(C)C)NC(=O)[C@H](CC(N)=O)NC(=O)[C@H](CCSC)NC(=O)[C@@H](NC(=O)[C@H](CC(N)=O)NC(=O)[C@@H](NC(=O)[C@@H]1CCCN1C(=O)[C@@H](NC(=O)[C@H](CC(=O)O)NC(=O)[C@H](CC(C)C)NC(=O)[C@H](CO)NC(=O)[C@H](CC(C)C)NC(=O)[C@@H](NC(=O)[C@H](Cc1ccccc1)NC(=O)[C@H](CCCCN)NC(=O)[C@@H](N)[C@@H](C)O)[C@@H](C)O)C(C)C)[C@@H](C)O)[C@@H](C)CC)[C@@H](C)CC)C(N)=O
B5: Cys-variant of stresscopin peptide with N-Ethylsuccinimide (NES) reactive group, SEQ ID NO: 49 (peptide)
peptide: TKFTLSLDVPTNIMNLLFNIAKAKC(Succinimide(1-Et,3-yl))LRAQAAANAHLMAQI-NH2
modifications: N-terminus assumed
SMILES: CC[C@H](C)[C@H](NC(=O)[C@H](CCC(N)=O)NC(=O)[C@H](C)NC(=O)[C@H](CCSC)NC(=O)[C@H](CC(C)C)NC(=O)[C@H](Cc1c[nH]cn1)NC(=O)[C@H](C)NC(=O)[C@H](CC(N)=O)NC(=O)[C@H](C)NC(=O)[C@H](C)NC(=O)[C@H](C)NC(=O)[C@H](CCC(N)=O)NC(=O)[C@H](C)NC(=O)[C@H](CCCNC(=N)N)NC(=O)[C@H](CC(C)C)NC(=O)[C@H](CSC1CC(=O)N(CC)C1=O)NC(=O)[C@H](CCCCN)NC(=O)[C@H](C)NC(=O)[C@H](CCCCN)NC(=O)[C@H](C)NC(=O)[C@@H](NC(=O)[C@H](CC(N)=O)NC(=O)[C@H](Cc1ccccc1)NC(=O)[C@H](CC(C)C)NC(=O)[C@H](CC(C)C)NC(=O)[C@H](CC(N)=O)NC(=O)[C@H](CCSC)NC(=O)[C@@H](NC(=O)[C@H](CC(N)=O)NC(=O)[C@@H](NC(=O)[C@@H]1CCCN1C(=O)[C@@H](NC(=O)[C@H](CC(=O)O)NC(=O)[C@H](CC(C)C)NC(=O)[C@H](CO)NC(=O)[C@H](CC(C)C)NC(=O)[C@@H](NC(=O)[C@H](Cc1ccccc1)NC(=O)[C@H](CCCCN)NC(=O)[C@@H](N)[C@@H](C)O)[C@@H](C)O)C(C)C)[C@@H](C)O)[C@@H](C)CC)[C@@H](C)CC)C(N)=O
B6: Cys-variant of stresscopin peptide with N-Ethylsuccinimide (NES) reactive group, SEQ ID NO: 51 (peptide)
peptide: TKFTLSLDVPTNIMNLLFNC(Succinimide(1-Et,3-yl))AKAKNLRAQAAANAHLMAQI-NH2
modifications: N-terminus assumed
SMILES: CC[C@H](C)[C@H](NC(=O)[C@H](CCC(N)=O)NC(=O)[C@H](C)NC(=O)[C@H](CCSC)NC(=O)[C@H](CC(C)C)NC(=O)[C@H](Cc1c[nH]cn1)NC(=O)[C@H](C)NC(=O)[C@H](CC(N)=O)NC(=O)[C@H](C)NC(=O)[C@H](C)NC(=O)[C@H](C)NC(=O)[C@H](CCC(N)=O)NC(=O)[C@H](C)NC(=O)[C@H](CCCNC(=N)N)NC(=O)[C@H](CC(C)C)NC(=O)[C@H](CC(N)=O)NC(=O)[C@H](CCCCN)NC(=O)[C@H](C)NC(=O)[C@H](CCCCN)NC(=O)[C@H](C)NC(=O)[C@H](CSC1CC(=O)N(CC)C1=O)NC(=O)[C@H](CC(N)=O)NC(=O)[C@H](Cc1ccccc1)NC(=O)[C@H](CC(C)C)NC(=O)[C@H](CC(C)C)NC(=O)[C@H](CC(N)=O)NC(=O)[C@H](CCSC)NC(=O)[C@@H](NC(=O)[C@H](CC(N)=O)NC(=O)[C@@H](NC(=O)[C@@H]1CCCN1C(=O)[C@@H](NC(=O)[C@H](CC(=O)O)NC(=O)[C@H](CC(C)C)NC(=O)[C@H](CO)NC(=O)[C@H](CC(C)C)NC(=O)[C@@H](NC(=O)[C@H](Cc1ccccc1)NC(=O)[C@H](CCCCN)NC(=O)[C@@H](N)[C@@H](C)O)[C@@H](C)O)C(C)C)[C@@H](C)O)[C@@H](C)CC)C(N)=O

In this experiment the target is T1, human CRH receptor type 2. Nature of the experiment: cell-based or functional assay.
With B1, the “Log DR against h-SCP, cAMP” value was 0.03 log10 ratio and the “pA50, cAMP” value was 9.44 -log M.
For B2, in that order: 0.05 log10 ratio and 9.42 -log M.
For B3, in that order: -0.01 log10 ratio and 9.48 -log M.
For B4, in that order: approximately 2.22 log10 ratio and ~7.25 -log M.
In the case of B5, the “Log DR against h-SCP, cAMP” value was 0.11 log10 ratio and the “pA50, cAMP” value is 9.36 -log M.
Taken in the same sequence, the figures for B6 were 0.68 log10 ratio and 8.79 -log M.
